Data on 2 substances can be found in patent US20160152684A1.

In test [1] the target is FcRn, FCGRT & B2M dimer receptor (Sino Biological Inc.). The test is described as follows: SPR, FcRn on CM5 chip, 12.5 nM analyte, RU 2 s before end of pH 6.0 injection. On the technique in general: SPR reads the build-up and loss of mass on a sensor chip optically.
Test [2] has the same target. The test is described as follows: SPR, 50 nM analyte, (RU at pH 7.4 / RU at pH 6.0) x 100.
Test [3] shares this target. In words: SPR, FcRn on CM5 chip, 100 nM analyte, RU 10 s after start of dissociation at pH 7.4.
Test [4] has the same target. In words: SPR, FcRn on CM5 chip, 25 nM analyte, RU 2 s before end of pH 6.0 injection.
For test [5] the target is unchanged. The test is described as follows: SPR, 12.5 nM analyte, (RU at pH 7.4 / RU at pH 6.0) x 100.
For test [6] the target is unchanged. The test is described as follows: SPR, FcRn on CM5 chip, 100 nM analyte, RU 2 s before end of pH 6.0 injection.
Test [7] shares this target. In words: SPR, 100 nM analyte, (RU at pH 7.4 / RU at pH 6.0) x 100.
For test [8] the target is unchanged. In words: SPR, mean over 100-12.5 nM analyte, (RU at pH 7.4 / RU at pH 6.0) x 100.
The target is the same in test [9]. The test is described as follows: SPR, FcRn on CM5 chip, 25 nM analyte, RU 10 s after start of dissociation at pH 7.4.
Test [10] shares this target. The test is described as follows: SPR, FcRn on CM5 chip, 50 nM analyte, RU 2 s before end of pH 6.0 injection.
For test [11] the target is unchanged. The test is described as follows: SPR, FcRn on CM5 chip, 50 nM analyte, RU 10 s after start of dissociation at pH 7.4.
Test [12] shares this target. The test is described as follows: SPR, FcRn on CM5 chip, 12.5 nM analyte, RU 10 s after start of dissociation at pH 7.4.
Test [13] has the same target. In words: SPR (BIACORE 3000), FcRn on CM5 chip, pH 6.0, 1:1 Langmuir with drifting baseline.
The target is the same in test [14]. In words: SPR, 25 nM analyte, (RU at pH 7.4 / RU at pH 6.0) x 100.

Sequence of FcRn, FCGRT & B2M dimer receptor (Sino Biological Inc.) (P55899 24-297, chain 1 of 2): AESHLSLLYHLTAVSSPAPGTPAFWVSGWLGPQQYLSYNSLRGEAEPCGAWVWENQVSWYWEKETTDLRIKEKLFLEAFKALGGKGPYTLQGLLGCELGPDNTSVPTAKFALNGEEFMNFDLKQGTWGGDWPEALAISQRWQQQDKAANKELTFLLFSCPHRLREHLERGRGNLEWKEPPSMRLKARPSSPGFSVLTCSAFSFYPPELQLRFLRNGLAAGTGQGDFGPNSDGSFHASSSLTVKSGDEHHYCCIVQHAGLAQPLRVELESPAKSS
Sequence of FcRn, FCGRT & B2M dimer receptor (Sino Biological Inc.) (P61769 21-119, chain 2 of 2, further chain): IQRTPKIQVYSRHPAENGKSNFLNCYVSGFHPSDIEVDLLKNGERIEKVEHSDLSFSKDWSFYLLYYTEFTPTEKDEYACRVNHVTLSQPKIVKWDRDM
Sequence of Human growth hormone-immunoglobulin Fc fragment conjugate (P01241 27-217): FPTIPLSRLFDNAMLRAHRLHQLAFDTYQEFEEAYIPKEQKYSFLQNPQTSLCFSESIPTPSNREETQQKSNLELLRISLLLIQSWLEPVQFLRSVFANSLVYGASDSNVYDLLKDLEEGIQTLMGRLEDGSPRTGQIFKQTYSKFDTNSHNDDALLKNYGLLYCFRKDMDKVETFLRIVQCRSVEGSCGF

On to “Human growth hormone-immunoglobulin Fc fragment conjugate (from UniProt P01241 27-217)”, for which the Binding amount (RU) at pH 6.0 in [1] was found to be 82.9 RU; in [4] it was 112 RU; in [6], 206 RU; in test [10], 153 RU. Also, the Binding ratio (%) in test [2] came to 5.1%; in [5], 9.8%; in [7] it was 4%; in test [14] it was 7.4%. In addition, the Binding amount (RU) at pH 7.4 in test [3] stood at 8.2 RU; in test [9], 8.3 RU; in [11] it was 7.7 RU; in test [12], 8.1 RU. The Average binding ratio (%) in [8] worked out at 6.6%. The same substance registered a Kd in test [13] of 26.8 nM. This substance also had a koff in [13] of 0.0036 s⁻¹. Also, the kon in [13] amounted to 120000 M⁻¹ s⁻¹.
For “Interferon-immunoglobulin Fc fragment conjugate (from UniProt P01563 24-188)”, the Binding amount (RU) at pH 6.0 was found to be 91.3 RU in test [1], 120 RU in test [4], 197 RU in [6] and 157 RU in test [10]. The Binding ratio (%) is 4.3% in test [2], 7% in test [5], 3.2% in test [7] and 5.6% in test [14]. Moreover, the Binding amount (RU) at pH 7.4 stood at 6.4 RU in test [3], 6.7 RU in test [9], 6.7 RU in test [11] and 6.4 RU in test [12]. The Average binding ratio (%) in test [8] amounted to 5%. The substance further registered a Kd in [13] of 30 nM. In test [13], this substance had a koff of 0.0093 s⁻¹. For the same substance, the kon in [13] was 300000 M⁻¹ s⁻¹.

In general, Kd refers to the free concentration of one partner at which half of the binding sites on the other are occupied at equilibrium, for simple one-to-one binding. Low values mean a tighter complex, high ones a looser complex. For orientation: koff means the rate constant with which the complex falls apart. High values mean fast dissociation, low ones slow dissociation. In general, kon refers to a measure of how fast the partners come together. A high value points to fast association.
